target: T1, FM-3 (Homo sapiens, UniProt Q9HB89); assay: not given; details: labeled ligand; cells confirmed to express FM-3 on the cell membrane; Tan et al., Genomics 52, 223-229, 1998; cited from earlier work
T1 sequence (Q9HB89 24-426 limits assumed): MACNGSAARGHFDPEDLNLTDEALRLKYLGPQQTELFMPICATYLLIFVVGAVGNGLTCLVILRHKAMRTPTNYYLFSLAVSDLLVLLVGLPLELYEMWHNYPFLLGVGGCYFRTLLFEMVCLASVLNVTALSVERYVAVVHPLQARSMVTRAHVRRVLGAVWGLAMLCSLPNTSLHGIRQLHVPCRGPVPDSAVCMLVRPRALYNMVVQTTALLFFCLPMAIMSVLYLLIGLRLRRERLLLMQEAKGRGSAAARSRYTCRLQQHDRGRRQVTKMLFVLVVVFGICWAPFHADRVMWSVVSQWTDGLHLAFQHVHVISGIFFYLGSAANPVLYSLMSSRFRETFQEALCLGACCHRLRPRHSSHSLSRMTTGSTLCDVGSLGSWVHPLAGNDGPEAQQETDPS

Substance	binding with cells expressing FM-3
Neurotensin: labeled Neurotensin, peptide ligand of the Neurotensin receptor	did not bind

target: T2, FM-3 (Homo sapiens, UniProt Q9HB89); assay: not given; details: free intracellular calcium ion release measured as an index; Tan et al.; cited from earlier work
T2 sequence (Q9HB89 1-426): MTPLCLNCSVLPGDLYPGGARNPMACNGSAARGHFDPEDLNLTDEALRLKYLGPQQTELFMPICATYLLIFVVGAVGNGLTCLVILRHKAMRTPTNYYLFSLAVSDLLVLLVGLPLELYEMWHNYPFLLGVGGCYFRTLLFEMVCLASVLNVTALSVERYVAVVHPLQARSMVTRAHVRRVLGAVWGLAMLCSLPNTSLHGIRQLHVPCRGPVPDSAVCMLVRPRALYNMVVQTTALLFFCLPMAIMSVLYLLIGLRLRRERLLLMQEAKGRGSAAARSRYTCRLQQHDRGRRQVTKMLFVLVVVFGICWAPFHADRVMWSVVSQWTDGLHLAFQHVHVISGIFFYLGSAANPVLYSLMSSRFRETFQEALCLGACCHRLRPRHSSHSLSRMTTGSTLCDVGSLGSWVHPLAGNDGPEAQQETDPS

Substance	activation of FM-3
galanin: peptide examined for activation of FM-3	not detected
thyrotropin releasing hormone	not detected
calcitonin: peptide examined for activation of FM-3	not detected
endothelin	not detected
somatostatin: peptide examined for activation of FM-3	not detected
growth hormone releasing hormone: peptide examined for activation of FM-3	not detected
VIP: vasoactive intestinal peptide, examined for activation of FM-3	not detected

target: T1, FM-3; assay: site sensor assay of cell-stimulating activity (extracellular acidification rate); type: cell-based; parameters: expressed in transfected cells; details: FM-3-expressing CHO cells versus mock CHO cells; exposure for 7 minutes and 2 seconds; 3 cycles before exposure set as 100 %; Fig. 1
Procedure: Pig Neuromedin U-8 at the concentration indicated in FIG. 1 was added to FM-3-expressing CHO cells (●) and mock CHO cells (○) for 7 minutes and 2 seconds in the site sensor assay. The maximum value of acidification rate in the reaction was plotted.
FM-3-expressing CHO cells and mock CHO cells, which were cultured in a cell-cultured container, were digested with trypsin and dissociated. The numbers of cells are counted. Then, the cells were inoculated in the capsules for site sensor (2.7 x 10^5 cells/capsule). After incubating them overnight, the capsules containing the cells were transferred to the sensor chamber for measurement, and then mounted to the workstation of the site sensor. The portion containing the cells was refluxed with low-buffered RMPI medium supplemented with 0.1% bovine serum albumin, and it was left still until the acidification rate became stable. The measurement of the acidification rate was made during pumping cycle of ON for 80 seconds and OFF for 40 seconds(2 minutes to one cycle). A rate of change in extracellular pH from 8 to 30 seconds after the pumping off was calculated as an acidification rate with the site sensor.
Pig Neuromedin-8 (BACHEM, H-5505, SEQ ID NO:5) was dissolved in distilled water at the concentration of 10mM, and then the gradually diluted solutions were prepared with low buffered RPMI medium containing 0.1% BSA. […]

Substance	cell-stimulating activity (acidification rate)
Pig Neuromedin-8: pig Neuromedin U-8, peptide of 8 amino acid residues, BACHEM, H-5505, SEQ ID NO:5	detected in a does-dependent manner and specific to FM-3-expressing CHO cells

Reference: patent publication EP1237001A1, “SCREENING METHOD” (Takeda Chemical Industries, Ltd., priority 1999, dated 2001)
